# Assay results published in the nanobody polyreactivity screen of Harvey et al. (2022).
# Experiment: yeast display, Sf9 membrane polyspecificity reagent, FACS + sequencing; frameworks hold sequencing errors
# Method in brief: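 Nanobodies from a synthetic yeast display library (Saccharomyces cerevisiae BJ5465), induced 36–48 hours with galactose, were stained 1 hour at 4 °C with 10% biotinylated, detergent-solubilized Sf9 membrane reagent, enriched on streptavidin microbeads, then FACS-sorted. Anti-HA (expression) and streptavidin (reagent binding) fluorescence set low and high (top ~1%) gates. Polyreactivity labels come from the gate of origin. Genes were colony-PCR amplified, MiSeq 2 × 250 sequenced and filtered by CDR length.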
row,Sequence,polyreactivity (PSR sort gate)
1,QVQLVESGRGLVQAGGSLRLRGAASGSTSWSNAMGWYRQAPGKERELVAAITTGASTYYADSVKGRFTSSRDNAKNTVYLQMNSLKPEDTAVYYCAADPWVLWSYYYWGQGTQVTVSS,low polyreactivity
2,QVQLLETGGGLVQAGGSLRLSCAASGITFKYYSMGWYRQAPGKERELFATITKRGGSTYYADSVKGRFTISRDNAKNTVYLQMNSLKPVDTAVYYCAAEILIRFWGVQWGGEYWGQGTQVTVSS,high polyreactivity
3,QVQLVESGGGLVQAGGSLRLSCAASGITFWYYAMGWYRQAPGKERELVAAISWDGGSTYYADSVKGRFTISRDNAKNTVYLQMNSLKPEDTAVYYCAAEQYLYTWARHRANFDYWGQGTQVTVSS,high polyreactivity
4,QVQLVESGGGLVQAGGSLRLSCAASGRISSYYAMGWYRQAPGKEREFVAAITRSSGSTYYADSVKGRFTISRDNAKNTVYLQMNSLKPEDTAVYYCAADYYWTTFSRFDYWGQGTQVTVSS,low polyreactivity
5,QVQLVESGGGLDQAGGSLRLSCAASGRTFYYYAMGWYRQAPGIERELVAAISWSGGNTYYADSVKGRFTISRDNAKNTVYLQMNSLKPEDTAVYYCNRAYRTLTARTGRYDYWGQGTQVTVSS,high polyreactivity
6,QVQLVESGGGLVQAGGSLRLSCAASGGIFADYAMGWYRQAPGKERELVAAISSGGNTNYADSVKGRFTISRDNAKNTVYLQMNSLKPEDTAVYYCNRDTSYYRYVYYEGNDYWGQGTQVTVSS,low polyreactivity
7,QVQLVESGGGLVQAGVSLRLSCAASGRIFIVYAMGWYRQAPGKERELVAAISWRGGNTYYADSVKARFTISRDNAKNTVYLQMNSLKPEDTAVYYCAARQYGTAAFDYWGQGTQVTVSS,high polyreactivity
8,QVQLVESGGGLVQAGGSLRLSCSASGTISGLYAMGWYRQATGKERELVARIRWRGDSTYYADSVKGRFTISRDNAKNTVYLQMNSLNPEDTAVFYCAASAYSGKVNKYNYWGQGTQVTVSS,high polyreactivity
9,QVQLVETGGGLVQAGGSLRLSCAASGTIFTNYTMGWYRQAPGKERELVASISWSGGRTYYADSVKGRFTISRDNAKNTVYLQMNSLKPEDTAVYYCAAVSRAPGLRYDYWGQGTQVTVSS,high polyreactivity
10,QVQIVESGGGLVQAGGSLRLSCAASGSIFGYAMGWYRPAPGKERELVAAISFSGVSTYYADSVKGRFTISRDNAKNTVYLQMNSLKPEDTAVYYCNAYSDGDEDYWGQGTQVTVSS,low polyreactivity
11,QVQLVESGGGLVQAGGSLRLSCAASGSTFSTYAMGWYRQAPGKERELVAAIRSGGSTYYADSVKGRFTISRDNAKNTVYLQMNSLKPEDTAVYYCAAKPRNYSYRYYYWGQGTLVTVSS,high polyreactivity
12,QVQLEESGGGLVQAGGSLRLSSAASGSTFYIYVMGWYSQAPGKERELVARISSSGGSTYYADSVKGRFTISRDNAKNSVYLQMNSLKPVDTAVYYCNVDYGAWYDYWGQGTQVTVSS,low polyreactivity
13,QVQLVESGGGLVQAGGSLRLSCAASGRIFKIYAMGWYRQAPGKERELVAAISGRGGSTYYADSVKGRFTISRDNAKNTVYLQMNSLKPEDTAVYYCAAVGYGFSAYSTYDYWGQGTQVTVSS,high polyreactivity
14,QVQLVESGGGLVQAGGSLRLSCAASGSTFVGYAMGWYRQAPGKERELVADIDSIGGSTYYADSVKGRFTISRDNAKNTVYLQMNSLKPEDTAVYYCAAYQHPGLRTSYEYWGQGTQVTVSS,low polyreactivity
15,QVQLVESGGGLVQAGGSLRLSCAASGRILNSYAMGWYRQAPGKEREFVAAIRRSRGSPYYADSVKGRFTISRDNAKNTVYLQMNSLKPEETAVYYCAAGRRYSGSYDYWGQGTQVTVSS,high polyreactivity
16,QVQLVESGGGLVQAGGSLRLSCADTGSTFYNYAMGWYRQAHGKERELVAAISSGGSTNYADSVKGLFTISRDNAKNTVYLKMNSLKPEDTAVYYCARRHRVYTSRIGHDYWGQGTQGTVSS,low polyreactivity
17,QVQLVESGGGLVQAGGSLRLSCAASGRIFRKYTMGWYRQAPGKERELVAAITWSGGSTYYADSVKGRFTISRDNAKNTVYLQMNSLKPEDTAVYYCAARSIGGYRAVDTYYYWGHGTQVTVSS,high polyreactivity
18,QVQLVESGGGLVQAGGSLRLSCAASGSTLYYNAMGWYRQAPGKERELVAAITSGGSTSYADSVKGRFTISRDNAKNTVYLQMNSLKPEDTAVSSCAAVFYRRFDYWGQGTQVTVSS,low polyreactivity
19,QVQLVESGGGLVQAGGSLRLSCAASRPIFYANAKGGYRQAPGKEREFVATIRRGTSTNYADSVKGRFTISRDNAKNTVYLQMNSLKPEDTAVYYCAVVSNGRRERYYYWGQGTQVTVSS,low polyreactivity
20,QVQLVESGGGLVQAGGSLRLSCAASGSIFVGYDMGWYRQAPGKERELVAAITGTVSTYYADSVKGRFTISRDNAKNTVYLQMNSLKPEDTAVYYCAAEFVYAYGDGGVYWSWMEYWGQGTQVTVSS,low polyreactivity
21,QVQLVESGGGLVQAGGSLRLSCAASGSNFENYAMGWYRQAPGKERELVAAISSNGGSTYYADSVKGRFTLSRDKAKNTVYLQKNSLKPEDTAVYYCNKGRYYRQIYDYWGQGTQVTVSS,high polyreactivity
22,QVQLVESGGGLVQAGGSLRLSCAASGRTFWNYAMGWYRQAPGKEREMVAVIRFSDGSTYYADSVKGRFTISRDNAKNTVYLQMNSLKPEDTAVYYCAAKGPRRWGSGFDYWGQGTQVTVSS,low polyreactivity

row,Sequence,polyreactivity (PSR sort gate)
1,QVQLVESGGGLVQAGGSLRLTSAGSGRIFVPYAMGCYRQAPGKERELVATITFGGGRTYYADSVKGRFTISRDNAKTTVFLQMNSLKPEDTAVYYCNAEGWYSVEYDYWGQGTQVTVSS,low polyreactivity
2,QVQLVESGGGLVHARGSLRLSCAASGCTFVRNAMGWYRPAPGKERELGAAITSRGGSTYYADSVKGRFTISRDNAKNTVYLQMNSLKPEDTAVYYCAARFGVKRGQYDFWGQGTQVTVSS,high polyreactivity
3,QVQLVESGGGVVQAGRSLRLSCAASGSTFQPYAMGSYRQAPGKEREFVATISGSAGSTYYADSVKGSFKISRDNAKNTVYLQMTSLKPEDTAVYYCNADSGWFGYDYWGQGTQVTVSS,low polyreactivity
4,QVQLVESGGGLVQAGGSLRLSCAASGRTFTGNTMGWYRQAPGKERELVAAISSSGGRTYYADSVKGRFTISRDNAKNTVYLQMNSLKQVDTAVYYCNATIWRTQYGYWGQGTQVTVSS,high polyreactivity
5,QVQLVESGGGLVQAGGSLRLSCAASGRILFHYAMGGSRPAPGKERELVAAITWRGGGTHYADSVKGRFTISRDNAKNTVYLQMNSLKPEDNAVYYCAADGWTYVYDYGYWGQGTQVTVSS,low polyreactivity
6,QVQLVESGGGLVQAGGSLRLSCAASGIIFLNNAMGLYIQAPGKERELVAVISFIGDSTYYADSVKGRFTISRDNSKNSVYLQMNSLKPEDTAVYYCAADYYLPYWFFVGYDYWGQGTQVTVSS,low polyreactivity
7,QVQLVESGGGLVQAGGSLRLSCAASGITFLHYAMGWYRQAPGKERELVARITYSGSSTYYADSVKGRFTISRDNAKNTVYLQMNSLKPEDTAVYYCNARASWGRWSRTGTPRYDYWGQGTQVTVSS,high polyreactivity
8,QVQIVESGGGLVQAGGSLRLSCAASGRTFTHYAMGWYRQAPGKERELVAAISSGGGTYYADSVKGRFTIARDNAKKTVYLQMNSLKPEDTAVYYCNADYSNYLDPFRTYGYWGQGTQVTVSS,low polyreactivity
9,QVQLVESGGGLVQAGGSLRLSCAASGLTFNSYDMGWYRQAPGKERELVAAISSGGVLPNYADSVKGRFTISRDNAKNTVYLQMNSLNPEDTAVYYCNVYSWPYDYWGQGTQVTVSS,low polyreactivity
10,QVQLVESGGGLVQAGGSLRLSCAASGFIFTGNVMGWYRQGPGKERELVAGITYTSGSTYYADSVKGRFTISRDNAKNTVYLQMNSLKPEDTAVYYCAAEVYVPDYFQHKFDVEYEYWGLGTQVTVSS,low polyreactivity
11,QVQLVESGGGLVQAGGSLRLSCAASGIIFSYYAMGWYRQAPGKERELVAAITYSGGSTYYADSVKGRFTISRDNAKNTVYLQMNSLKPEDTAVYYCDAEDYYYYSWYEYSYYYWGQGTQVTVSS,high polyreactivity
12,QVQLVESGGCLVQAGGSLRLSCAASGSTFLINAMGWYRQAPGKEREFVASIRYRGATTYADSVKGRFTISRDNAKNTVYLQMNTLKPEDTAVYYCAASIWLRYHWGYDYWGQGTQVTVSS,high polyreactivity
13,QVQLQESGGGLVQAGGSLLSCAASGTISYYREMGWYRQAPGKERELDAGIGVGTITSYADSVKGRFTISRDNAKNTVYLQMNSLKPEDTAVYYCAAHIDGNDSHAYWGQGTQVTVSC,low polyreactivity
14,QVQLVESGGGLVQAGGSLRLSCAASGRIFNDYTMGWYRPAPGKERELVAAITNRDTSTSYADSVKGRFTISRDNAKNTVYLQMNSLKPEDTAVYYCNAQQVIVVYRPGDYWGQGTQVTVSS,low polyreactivity
15,QVQLVESGGGLVQAGGSLRLSCAASGSTFRPSAMGWYRQAPGKERELVAAIRSGRTSYADSVKGRFTISRDYAKNTVYLQMNSLKPEDTAVYYCAKASRGGYYWGQGTQVTVSS,high polyreactivity
16,QVQLVESGGGLVQAGGSLRLSCAASGITFRYYAMGWDRQAPGKERELVAAINRGGDSTYYADSVKGRFTISRDNAKNTVYLQMNSLKPEDTAVYYCAASSYYRGTFYPSYYWGQGTQVTVSS,high polyreactivity
17,QVQLVESGGGLVQAGGSLRLSCAASGSILSGYAMGWYRQAPGKERELVAAISWSGGSTYYADSVKGRFTISRDNAKNTVYLQMNSLKPEDTAVYYCAAASVPWGGYYWGQGTQVTVSS,low polyreactivity
18,QVQLVESGGGLVQAGGSLRLSCAASGITYGYNTMGWYRQAPGKERELVADISRSGGRTYYADSVKARFTISRDNAKNTVYLQMNSLKPEDTAVYYCAAVSNSGHYYYWGQGTQVTVSS,high polyreactivity
19,QVQLVESGGGLVQAGGSLRVSCAASGRSFWTDTMGWYRQAPGKEREFVAAITFGDGSTSYADSVKGRFTISRDNAKNTVYLQMNSLKPEDTAVYYCAKRWRRRFVDVWSLYDYWGQGTQVTVSS,low polyreactivity
20,QVQLVESGGGLVQAGGSLRLSCAASGFTIRSYVMGWYRQAPGKEREFVAAISYRGGGTNYADSVKGRFTISRDNAKNTVYLQMNSLKPEDTAVYYCNARSGSSKSGYYNWGQGTQVTVSS,high polyreactivity
21,QFHLVESGGGLVQAGGSLRLSCAASGRNLVRYAMGCYRQAPGKERELVAAISKSGGSTYYADSVKGRFTISRDNAKNTVYLQMNSLKPEDTAVYYSNALVRRRPGYIRYDYWGQGTQVTVSS,low polyreactivity
